Experimental data as given in PMC6688529, “Dissecting the cytochrome c2–reaction centre interaction in bacterial photosynthesis using single molecule force spectroscopy” (Biochemical Journal, 2019).

Tests used:
[1] = biological target: T1, monomeric RC–His12–LH1–PufX core complex (reaction centre light-harvesting 1-PufX) (Rba. sphaeroides, UniProt P0C0Y7 1-260; P0C0Y8 2-282; P0C0Y9 2-308; P0C0X9 1-58; P0C0Y1 1-49; P13402 1-82); experiment: single-molecule dynamic force spectroscopy (AFM); RC–LH1–PufX on the AFM tip via His12/Ni-NTA and a PEG12 linker, kept photo-oxidised by white light; pre-reduced cytochrome c2-His6 held on a Ni-NTA SiOx substrate via His6; 10 mM HEPES pH 7.4, 45 mM KCl, room temperature; retract velocity 200–3000 nm s^-1; the paper calls the values apparent; conditions: both partners purified
[2] = biological target: T1, monomeric RC–His12–LH1–PufX core …; experiment: PeakForce QNM single-molecule force spectroscopy (AFM); RC–LH1–PufX on the AFM tip, illuminated; pre-reduced cytochrome c2-His6 (and His6-CFP in patterned lines) held on a Ni-NTA SiOx substrate; 10 mM HEPES pH 7.4, 45 mM KCl, room temperature; modulation frequencies 0.5, 1 and 2 kHz; conditions: both partners purified

B1: cytochrome c2-His6 (natural protein)
chain: QEGDPEAGAKAFNQCQTCHVIVDDSGTTIAGRNAKTGPNLYGVVGRTAGTQADFKGYGEGMKEAGAKGLAWDEEHFVQYVQDPTKFLKEYTGDAKAKGKMTFKLKKEADAHNIWAYLQQVAVRP
notes: cytochrome c2, cloned from Rba. sphaeroides strain 2.4.1; Carries a haem cofactor; pre-reduced with 1 mM sodium dithionite before the measurements; The gene was cloned with its own start; the signal peptide is surmised to be cut in Rba. sphaeroides; also called Cyt c2–His6; cyt c2; source: Rba. sphaeroides ΔcycA strain carrying the gene on pRK415, purified (LDAO-solubilised membrane fraction, …)
Binder B1 has a koff [1] of 7.5 s⁻¹ and a koff [2] of 198 s⁻¹.
